Here are results for one molecule from article PMC3900686 (2014).

Assay in all cases: ITC; LCMT-1 preloaded with SAH
(In ITC the heat of successive injections is recorded.)

Assay [1] addresses PP2A catalytic Cα-subunit (free PP2Ac) ( ("mammalian PP2Ac"), UniProt P67775 1-309).
Assay [2] addresses PP2A core enzyme (A–C heterodimer), unmethylated ( |  ("mammalian …, UniProt P30153 1-589; P67775 1-309).
Assay [3] has as its target methylated PP2A core enzyme (methylated AC heterodimer) ( |  ("mammalian …, UniProt P30153 1-589)); P67775 1-309, carboxyl methylation of the last leucine residue (Leu-309)).

Sequence of PP2A core enzyme (A–C heterodimer), unmethylated ( |  (P30153 whole entry, chain 1 of 2): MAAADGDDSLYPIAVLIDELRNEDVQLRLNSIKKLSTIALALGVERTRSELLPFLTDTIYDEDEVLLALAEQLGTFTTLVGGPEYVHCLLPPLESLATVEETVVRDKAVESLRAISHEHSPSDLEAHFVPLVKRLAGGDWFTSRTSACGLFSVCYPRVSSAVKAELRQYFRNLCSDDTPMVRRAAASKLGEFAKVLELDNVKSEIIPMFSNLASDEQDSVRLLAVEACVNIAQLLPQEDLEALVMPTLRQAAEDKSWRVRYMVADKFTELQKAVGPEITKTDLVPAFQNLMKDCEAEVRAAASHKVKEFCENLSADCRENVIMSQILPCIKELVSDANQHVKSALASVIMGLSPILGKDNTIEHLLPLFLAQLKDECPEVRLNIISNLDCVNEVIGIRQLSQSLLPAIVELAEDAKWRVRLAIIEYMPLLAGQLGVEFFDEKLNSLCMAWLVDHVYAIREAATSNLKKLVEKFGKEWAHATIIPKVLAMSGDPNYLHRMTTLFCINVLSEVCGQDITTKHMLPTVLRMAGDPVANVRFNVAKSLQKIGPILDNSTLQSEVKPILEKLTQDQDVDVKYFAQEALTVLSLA
Sequence of PP2A core enzyme (A–C heterodimer), unmethylated ( |  (P67775 whole entry, chain 2 of 2): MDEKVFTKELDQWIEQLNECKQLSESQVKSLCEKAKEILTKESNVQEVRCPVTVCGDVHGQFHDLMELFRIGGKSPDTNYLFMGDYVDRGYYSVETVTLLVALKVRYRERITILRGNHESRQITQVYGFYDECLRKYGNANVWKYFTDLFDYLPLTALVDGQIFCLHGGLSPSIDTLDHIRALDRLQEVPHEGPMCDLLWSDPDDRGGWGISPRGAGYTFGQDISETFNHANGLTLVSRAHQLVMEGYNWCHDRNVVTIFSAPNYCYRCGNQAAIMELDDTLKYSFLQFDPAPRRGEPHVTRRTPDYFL
Sequence of methylated PP2A core enzyme (methylated AC heterodimer) ( |  (P30153 whole entry, chain 1 of 2): as the sequence (P30153 whole entry, chain 1 of 2) above
Sequence of methylated PP2A core enzyme (methylated AC heterodimer) ( |  (P67775 whole entry, chain 2 of 2): as the sequence (P67775 whole entry, chain 2 of 2) above
Sequence of PP2A catalytic Cα-subunit (free PP2Ac) (P67775 whole entry): as the sequence (P67775 whole entry, chain 2 of 2) above

B1: PP2A-specific leucine carboxyl methyltransferase 1 (LCMT-1) (enzyme)
chain: MATRQRESSITSCCSTSSCDADDEGVRGTCEDASLCKRFAVSIGYWHDPYIQHFVRLSKERKAPEINRGYFARVHGVSQLIKAFLRKTECHCQIVNLGAGMDTTFWRLKDEDLLPSKYFEVDFPMIVTRKLHSIKCKPPLSSPILELHSEDTLQMDGHILDSKRYAVIGADLRDLSELEEKLKKCNMNTQLPTLLIAECVLVYMTPEQSANLLKWAANSFERAMFINYEQVNMGDRFGQIMIENLRRRQCDLAGVETCKSLESQKERLLSNGWETASAVDMMELYNRLPRAEVSRIESLEFLDEMELLEQLMRHYCLCWATKGGNELGLKEITY
B1: the Kd (usually the concentration at which binding is half-saturated) in assay [1] amounted to 560 nM; in assay [2], 140 nM; in assay [3], 630 nM.
